Series [1] deals with HIV-1 integrase wild-type (IN1-288) (HIV-1) (UniProt P12497). The series can be described thus: inhibition. As to conditions: 3'-processing.
The target of series [2] is T1, SIV integrase (Simian immunodeficiency virus) (UniProt P05897).
T1 sequence: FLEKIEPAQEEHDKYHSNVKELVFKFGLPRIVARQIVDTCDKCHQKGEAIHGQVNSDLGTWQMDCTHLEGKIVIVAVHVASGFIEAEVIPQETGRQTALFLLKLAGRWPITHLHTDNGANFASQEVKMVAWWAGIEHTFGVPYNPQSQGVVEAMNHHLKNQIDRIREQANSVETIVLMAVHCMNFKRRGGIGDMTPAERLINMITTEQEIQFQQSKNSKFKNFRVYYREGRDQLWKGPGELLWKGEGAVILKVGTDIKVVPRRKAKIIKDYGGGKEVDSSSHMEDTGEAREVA
In words: inhibition. The conditions noted are these: PS at first and last internucleoside linkages, 3'-OH; 3'-processing.

As a reminder, the IC50 is the concentration that gives 50% inhibition. In series [1] (PS at first and last linkages, strand transfer >0.5 uM), “TCTTCCTCTCTCTACCCACGCTCIC [T30662 antisense GEM91 variant pPT]” gave an IC50 of more than 500 nM.

In series [1] (all phosphodiester, strand transfer >0.5 uM), “TCTTCCTCTCTCTACCCACGCTCIC [T30658 antisense GEM91 variant PD]” showed an IC50 of more than 500 nM.

“TCTTCCTCTCTCTACCCACGCTCIC [T30531 antisense GEM91 variant PT]” showed a half-inhibitory concentration (IC50) in series [1] (all PS, strand transfer 0.036 uM) of 30 nM.

With “GTGGTGGGTGGGTGGGT [T30177 (AR177, Zintevir)]”, the IC50 in series [2] is 420 nM.

For the origin of these results see US6323185.
